# Square brackets hold non-standard residues; d marks the D form. Ends that are not written are not given here. Aib = CC(C)(N)C(=O)O
# How the values were obtained:
# human GIP receptor = biological target: T1, human GIP receptor (Homo sapiens, UniProt P48546); assay: In vitro cAMP activity in human GIP receptor-expressing CHO cells (LANCE cAMP kit); format: cell-based; details: long-acting conjugates (peptide-PEG-immunoglobulin Fc); relative titer from cAMP EC50, human GIP receptor CHO cells
# T1 construct: expressed in transfected cells; host or cells: Chinese hamster ovary (CHO)
# T1 sequence (P48546 22-466): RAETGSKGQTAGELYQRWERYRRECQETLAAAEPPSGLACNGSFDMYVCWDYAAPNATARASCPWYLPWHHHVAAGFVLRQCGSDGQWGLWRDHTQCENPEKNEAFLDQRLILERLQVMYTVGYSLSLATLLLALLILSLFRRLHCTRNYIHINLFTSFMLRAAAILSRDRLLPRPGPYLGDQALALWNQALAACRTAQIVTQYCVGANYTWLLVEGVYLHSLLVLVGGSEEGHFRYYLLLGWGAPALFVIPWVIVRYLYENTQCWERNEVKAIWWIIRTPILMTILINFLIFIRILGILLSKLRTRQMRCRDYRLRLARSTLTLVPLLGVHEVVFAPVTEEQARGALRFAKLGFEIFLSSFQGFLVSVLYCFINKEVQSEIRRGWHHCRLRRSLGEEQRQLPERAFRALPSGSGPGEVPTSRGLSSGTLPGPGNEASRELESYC
# Protocol: (§1) In order to measure the activity of the GLP-1/GIP dual agonist prepared in Example 1, an in vitro cell activity was measured using cell lines transformed with the GLP-1 receptor and the GIP receptor, respectively. The cell lines are transformed to express human GLP-1 and human GIP receptor genes in Chinese hamster ovary (CHO), respectively, and are suitable for measuring the activities of GLP-1 and GIP. Therefore, the activity for each part was measured using each transformed cell line.
# (§2) To measure the GIP activity of the dual agonist prepared in Example 1, human GIP was diluted from 50 nM to 0.000095 nM by 4-fold serial dilution, and the dual agonist prepared in Example 1 was diluted from 50 nM to 0.000048 nM by 4-fold serial dilution. The culture medium was removed from the cultured human GIP receptor-expressing CHO cells, 5 μl of each of the serially diluted materials was added to the cells, and then 5 μl of buffer containing cAMP antibody was added to the cells, followed by 15 minutes of incubation at room temperature. Then, cells were lysed by adding 10 μl of detection mix containing cell lysis buffer, and reacted at room temperature for 90 minutes. The cell lysate after the reaction had been completed, was applied to the LANCE cAMP kit (PerkinElmer, USA) to calculate the EC50 value through the accumulated cAMP, and then compared with each other.
# (§3) In order to measure the activity of the long-acting conjugate of SEQ ID NOs: 20, 36, and 40 prepared in Example 3, the cell activity in vitro was measured using cell lines transformed with the GLP-1 receptor and the GIP receptor, respectively, in the same manner as in Example 2.
# (§4) The cell lines were transformed to express the human GLP-1 receptor and the human GIP receptor genes in Chinese hamster ovary (CHO), respectively, and were each the same cell line used in Example 2. Activity for each part was measured using each transformed cell line. […]
# human GLP-1 receptor = biological target: T2, human GLP-1 receptor (Homo sapiens, UniProt P43220); assay: In vitro cAMP activity in human GLP-1 receptor-expressing CHO cells (LANCE cAMP kit); format: cell-based; details: long-acting conjugates (peptide-PEG-immunoglobulin Fc); relative titer from cAMP EC50, human GLP-1 receptor CHO cells
# T2 construct: expressed in transfected cells; host or cells: Chinese hamster ovary (CHO)
# T2 sequence (P43220 24-463): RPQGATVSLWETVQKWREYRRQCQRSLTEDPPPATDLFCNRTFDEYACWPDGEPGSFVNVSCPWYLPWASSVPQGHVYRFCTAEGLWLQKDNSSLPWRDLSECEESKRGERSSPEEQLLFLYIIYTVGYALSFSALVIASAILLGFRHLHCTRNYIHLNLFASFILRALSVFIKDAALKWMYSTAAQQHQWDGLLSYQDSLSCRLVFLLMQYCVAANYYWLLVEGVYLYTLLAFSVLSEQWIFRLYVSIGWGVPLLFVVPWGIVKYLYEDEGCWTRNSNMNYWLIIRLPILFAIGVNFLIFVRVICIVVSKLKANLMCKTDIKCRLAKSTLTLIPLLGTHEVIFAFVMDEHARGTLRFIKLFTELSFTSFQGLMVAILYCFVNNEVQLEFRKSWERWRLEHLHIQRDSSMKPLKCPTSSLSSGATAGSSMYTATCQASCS
# Protocol: as §1
# as §2, with “GLP-1” for “GIP”, “0.000048” for “0.000095”
# as §3, §4
Substance,In vitro activity compared to native peptide (%) vs human GIP (human GIP receptor),In vitro activity compared to native peptide (%) vs human GLP-1 (human GLP-1 receptor)
20 (Y[Aib]EGTFTSDYSI[Aib]LDKQAA[Aib]AFVQWLIAGGPSSGAPPPSC) [compound 20],62.1%,7.5%
36 (Y[Aib]EGTFTSDYSI[Aib]LDKQAQQAFVQWLIAGGPSSGAPPPSC) [compound 36],26.9%,3.9%
40 (Y[Aib]EGTFTSDYSIALEKQAQRDFVNWLLAGGPSSGAPPPSC) [compound 40],24.7%,10.1%

# Reference: US12552850B2, “GLP-1/GIP dual agonist, long-acting conjugate thereof, and pharmaceutical composition comprising same” (HANMI PHARM. CO., LTD., priority 2020, dated 2026)
